Reference: PMC4619763, “A Novel Highly Thermostable Multifunctional Beta-Glycosidase from Crenarchaeon Acidilobus saccharovorans” (Archaea, 2015)

Tests used:
Asac_1390 = biological target: T1, Asac_1390 (Acidilobus saccharovorans, UniProt D9PZ08); assay: oNPGal hydrolysis, Cornish-Bowden and Dixon plots; type: biochemical; conditions: mixed inhibition, dissociation constant of the EIS complex; otherwise as the row above
T1 construct: full length, 490 residues, about 55 kDa on SDS-PAGE; pQE60 NcoI/BglII, expressed in E. coli DLT1270 pRARE2; purified by double heat treatment; no secretion signal; no tag mentioned (reverse primer carries the stop codon)
T1 sequence (D9PZ08 1-490): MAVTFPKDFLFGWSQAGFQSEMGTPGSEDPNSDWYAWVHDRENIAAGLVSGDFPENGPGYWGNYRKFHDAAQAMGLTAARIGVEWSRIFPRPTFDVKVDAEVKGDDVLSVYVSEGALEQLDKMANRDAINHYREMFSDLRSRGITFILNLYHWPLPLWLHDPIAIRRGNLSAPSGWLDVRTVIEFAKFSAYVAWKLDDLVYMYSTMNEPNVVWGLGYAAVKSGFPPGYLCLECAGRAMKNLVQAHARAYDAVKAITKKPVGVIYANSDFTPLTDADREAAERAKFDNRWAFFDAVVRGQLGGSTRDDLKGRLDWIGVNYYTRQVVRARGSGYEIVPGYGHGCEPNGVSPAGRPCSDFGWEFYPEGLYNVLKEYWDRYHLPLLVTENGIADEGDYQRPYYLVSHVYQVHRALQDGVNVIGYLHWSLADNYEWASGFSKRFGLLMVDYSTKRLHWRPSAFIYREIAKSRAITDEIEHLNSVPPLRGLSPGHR

purified protein [1] = substrate: O=[N+]([O-])c1ccc(O[C@@H]2OC[C@@H](O)[C@H](O)[C@H]2O)cc1; assay: purified protein; type: biochemical, Acidilobus saccharovorans; conditions: 0.1 M sodium phosphate pH 7.0, 93°C
purified protein [2] = substrate: O=[N+]([O-])c1ccc(O[C@@H]2O[C@H](CO)[C@@H](O)[C@H](O)[C@@H]2O)cc1; assay: purified protein; type: biochemical, Acidilobus saccharovorans; conditions: 0.1 M sodium phosphate pH 7.0, 93°C
purified protein [3] = substrate: O=[N+]([O-])c1ccc(O[C@@H]2O[C@H](CO)[C@@H](O)[C@H](O)[C@H]2O)cc1; assay: purified protein; type: biochemical, Acidilobus saccharovorans; conditions: 0.1 M sodium phosphate pH 7.0, 93°C
purified protein [4] = substrate: O=[N+]([O-])c1ccc(O[C@@H]2O[C@H](CO)[C@H](O)[C@H](O)[C@H]2O)cc1; assay: purified protein; type: biochemical, Acidilobus saccharovorans; conditions: 0.1 M sodium phosphate pH 7.0, 93°C
purified protein [5] = substrate: O=[N+]([O-])c1ccccc1O[C@@H]1O[C@H](CO)[C@H](O)[C@H](O)[C@H]1O; assay: purified protein; type: biochemical, Acidilobus saccharovorans; conditions: 0.1 M sodium phosphate pH 7.0, 93°C

For `OC[C@H]1OC(O)[C@H](O)[C@@H](O)[C@@H]1O` (stereo partly drawn) [glucose], the “K i′” value (Asac_1390) was 158 mM.

B1: Asac_1390 (Acidilobus saccharovorans 345-15) (protein)
chain: T1 sequence (D9PZ08 1-490)
notes: full length, 490 residues, about 55 kDa on SDS-PAGE; pQE60 NcoI/BglII, expressed in E. coli DLT1270 pRARE2; purified by double heat treatment; no secretion signal; no tag mentioned (reverse primer carries the stop codon)
In the case of B1, the Km (purified protein [1]) is reported as 4650 µM, the Vmax (purified protein [1]) is reported as 124 µmol/min/mg and the kcat (purified protein [1]) is reported as 115 s⁻¹. The kcat/Km (purified protein [1]) was 24600 M⁻¹ s⁻¹, the Km (purified protein [2]) was 2400 µM and the Vmax (purified protein [2]) was 62.8 µmol/min/mg. It also gave a kcat (purified protein [2]) of 58.2 s⁻¹, a kcat/Km (purified protein [2]) of 24200 M⁻¹ s⁻¹ and a Km (purified protein [3]) of 240 µM. The Vmax (purified protein [3]) was 344 µmol/min/mg, the kcat (purified protein [3]) was 318 s⁻¹ and the kcat/Km (purified protein [3]) was 1.33e+06 M⁻¹ s⁻¹. The Km (purified protein [4]) was 2900 µM, the Vmax (purified protein [4]) was 499 µmol/min/mg and the kcat (purified protein [4]) was 462 s⁻¹. For the same molecule, the kcat/Km (purified protein [4]) was 160000 M⁻¹ s⁻¹, the Km (purified protein [5]) was 2000 µM and the Vmax (purified protein [5]) was 469 µmol/min/mg. It also gave a kcat (purified protein [5]) of 434 s⁻¹ and a kcat/Km (purified protein [5]) of 217000 M⁻¹ s⁻¹.
